Read-outs that look alike come from different tables or passages of the source.
Legend:
Experiment in all cases: SEC-MALS
[1] = target: Streptococcus pyogenes Cas9, full length, 6×His tagged (Streptococcus pyogenes) (UniProt Q99ZW2)
[2] = target: AcrIIA19 (full length, C-terminal 6×His tag) (Staphylococcus pseudintermedius)
[3] = target: AcrIIA19 (full length, C-terminal 6×His tag) (Staphylococcus pseudintermedius); remark: listed apart in the source

Sequence of UniProt Q99ZW2 (Q99ZW2 whole entry): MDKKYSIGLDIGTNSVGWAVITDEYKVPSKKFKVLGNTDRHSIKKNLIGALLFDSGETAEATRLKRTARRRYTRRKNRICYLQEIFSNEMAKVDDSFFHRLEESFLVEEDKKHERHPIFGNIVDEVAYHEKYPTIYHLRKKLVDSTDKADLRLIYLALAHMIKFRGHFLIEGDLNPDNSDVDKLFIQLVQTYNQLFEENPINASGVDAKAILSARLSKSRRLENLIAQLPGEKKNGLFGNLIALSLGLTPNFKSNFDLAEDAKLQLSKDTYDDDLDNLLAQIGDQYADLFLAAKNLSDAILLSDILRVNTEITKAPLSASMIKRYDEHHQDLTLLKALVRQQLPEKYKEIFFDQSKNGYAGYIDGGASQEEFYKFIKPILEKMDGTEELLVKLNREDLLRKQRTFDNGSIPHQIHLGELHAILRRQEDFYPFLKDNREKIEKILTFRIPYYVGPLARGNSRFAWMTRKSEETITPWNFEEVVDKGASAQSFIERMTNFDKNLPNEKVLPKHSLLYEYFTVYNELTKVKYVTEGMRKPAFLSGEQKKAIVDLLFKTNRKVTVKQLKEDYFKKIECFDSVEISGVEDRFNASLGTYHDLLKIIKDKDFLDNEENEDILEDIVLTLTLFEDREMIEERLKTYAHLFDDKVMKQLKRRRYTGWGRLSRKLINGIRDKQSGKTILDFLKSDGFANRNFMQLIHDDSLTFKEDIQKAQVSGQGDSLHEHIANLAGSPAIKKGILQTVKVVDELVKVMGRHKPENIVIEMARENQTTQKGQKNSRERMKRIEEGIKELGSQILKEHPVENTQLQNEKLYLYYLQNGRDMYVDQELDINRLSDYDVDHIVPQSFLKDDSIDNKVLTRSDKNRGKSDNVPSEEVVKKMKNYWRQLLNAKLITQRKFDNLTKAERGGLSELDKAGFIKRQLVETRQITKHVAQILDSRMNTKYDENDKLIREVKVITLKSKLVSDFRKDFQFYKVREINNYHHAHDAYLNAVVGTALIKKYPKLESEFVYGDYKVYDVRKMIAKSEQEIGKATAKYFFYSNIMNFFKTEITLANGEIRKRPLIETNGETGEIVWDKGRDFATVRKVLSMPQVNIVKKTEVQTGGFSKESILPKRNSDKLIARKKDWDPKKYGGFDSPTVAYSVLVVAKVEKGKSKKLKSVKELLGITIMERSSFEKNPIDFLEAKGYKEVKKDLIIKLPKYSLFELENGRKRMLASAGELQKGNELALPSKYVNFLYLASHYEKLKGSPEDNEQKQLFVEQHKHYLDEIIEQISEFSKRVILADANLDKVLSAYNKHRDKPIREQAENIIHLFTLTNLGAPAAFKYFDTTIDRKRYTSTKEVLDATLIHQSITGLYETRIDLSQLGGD

Substance: AcrIIA19 (full length, C-terminal 6×His tag) (natural protein)
- stoichiometry N (AcrIIA19 per Cas9) [1]: 1
- stoichiometry N [2]: 2
- stoichiometry N [3]: 2

From article PMC12855784
